Here are results for 94 variants from the supplement of paper PMC10567573.

B1: ZNF511 (parent)
chain: HLYPADFRFDKPKKSRSPASAEAP
B2: SMOC2 (parent)
chain: DCAGSPQKPLCASDGRTFLSRCEF
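Also: lentivirally expressed fusions sorted by FACS into six bins by GFP to DsRed ratio, PSI derived from sequencing read proportions per bin multiplied by bin number.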

The variants in one data set derive from B1. Kind of data set: protein stability index of a GFP-peptide fusion (GPS, HEK-293T) (PSI 1-6); higher = more stable. Particulars: c terminus: a fixed tail appended.
On to HHYPADFRFDKPKKSRSPASAEAP, for which the protein stability index came to 3.58.
Take HNYPADFRFDKPKKSRSPASAEAP: the protein stability index came out at 4.38.
The same measure, in the same setting: the same measure for HAYPADFRFDKPKKSRSPASAEAP: 4.37; for HDYPADFRFDKPKKSRSPASAEAP: 4.91.
Regarding HIYPADFRFDKPKKSRSPASAEAP, the protein stability index came to 1.9.
HKYPADFRFDKPKKSRSPASAEAP: the protein stability index was 4.6.
Take HCYPADFRFDKPKKSRSPASAEAP: the protein stability index was determined as 3.53.
The same measure, in the same setting: the value for HMYPADFRFDKPKKSRSPASAEAP was 3.35; that for HGYPADFRFDKPKKSRSPASAEAP was 4.37.
The same measure, in the same setting: the same measure for HEYPADFRFDKPKKSRSPASAEAP: 4.73; for HFYPADFRFDKPKKSRSPASAEAP: 4.37; for HPYPADFRFDKPKKSRSPASAEAP: 4.52.
The same measure, in the same setting: the value for HQYPADFRFDKPKKSRSPASAEAP was 3.59.
Take RLYPADFRFDKPKKSRSPASAEAP: the protein stability index worked out at 3.57.
Still for that read-out and setting: the same measure for YLYPADFRFDKPKKSRSPASAEAP: 2.08; for NLYPADFRFDKPKKSRSPASAEAP: 4.2; for MLYPADFRFDKPKKSRSPASAEAP: 4.09.
Still for that read-out and setting: the same measure for DLYPADFRFDKPKKSRSPASAEAP: 4.13; for KLYPADFRFDKPKKSRSPASAEAP: 4.05; for TLYPADFRFDKPKKSRSPASAEAP: 4.19.
Take LLYPADFRFDKPKKSRSPASAEAP: the protein stability index amounted to 3.94.
Same read-out and setting: the value for GLYPADFRFDKPKKSRSPASAEAP was 4.7.
On the same count and under the same terms, the same measure for FLYPADFRFDKPKKSRSPASAEAP: 4.32; for ALYPADFRFDKPKKSRSPASAEAP: 3.95.
The same measure, in the same setting: the value for VLYPADFRFDKPKKSRSPASAEAP was 3.67.
As to CLYPADFRFDKPKKSRSPASAEAP, the protein stability index worked out at 3.59.
Consider SLYPADFRFDKPKKSRSPASAEAP, for which the protein stability index was 4.48.
The same measure, in the same setting: the value for PLYPADFRFDKPKKSRSPASAEAP was 4.58; that for WLYPADFRFDKPKKSRSPASAEAP was 2.69; that for ILYPADFRFDKPKKSRSPASAEAP was 2.85.
Still for that read-out and setting: the value for ELYPADFRFDKPKKSRSPASAEAP was 3.81.
Same read-out and setting: the value for QLYPADFRFDKPKKSRSPASAEAP was 3.65.

In a further data set the parent is B2. The description is as above. As to conditions: c terminus: a fixed tail appended.
As for DCAGSPQKPLCASDGRTFLSRWEF, the protein stability index amounted to 2.93.
Same read-out and setting: the value for DCAGSPQKPLCASDGRTFLSRNEF was 4.36.
Still for that read-out and setting: the same measure for DCAGSPQKPLCASDGRTFLSRVEF: 2.63; for DCAGSPQKPLCASDGRTFLSRSEF: 3.49.
On the same count and under the same terms, the same measure for DCAGSPQKPLCASDGRTFLSRYEF: 3.67.
In the case of DCAGSPQKPLCASDGRTFLSREEF, the protein stability index was 4.38.
On the same count and under the same terms, the value for DCAGSPQKPLCASDGRTFLSRTEF was 3.29; that for DCAGSPQKPLCASDGRTFLSRKEF was 4.42.
Still for that read-out and setting: the value for DCAGSPQKPLCASDGRTFLSRMEF was 2.31.
Consider DCAGSPQKPLCASDGRTFLSRAEF, for which the protein stability index turned out to be 3.86.
Still for that read-out and setting: the value for DCAGSPQKPLCASDGRTFLSRGEF was 3.96; that for DCAGSPQKPLCASDGRTFLSRHEF was 3.68.
Same read-out and setting: the value for DCAGSPQKPLCASDGRTFLSRPEF was 3.95; that for DCAGSPQKPLCASDGRTFLSRLEF was 2.5.
Turning to DCAGSPQKPLCASDGRTFLSRFEF, the protein stability index worked out at 2.5.
The same measure, in the same setting: the same measure for DCAGSPQKPLCASDGRTFLSRQEF: 4.19; for DCAGSPQKPLCASDGRTFLSRDEF: 4.81; for DCAGSPQKPLCASDGRTFLSRCEH: 3.79.
The same measure, in the same setting: the value for DCAGSPQKPLCASDGRTFLSRCEI was 3.16.
On to DCAGSPQKPLCASDGRTFLSRCEW, for which the protein stability index is 2.02.
On the same count and under the same terms, the value for DCAGSPQKPLCASDGRTFLSRCES was 3.46; that for DCAGSPQKPLCASDGRTFLSRCEK was 2.97; that for DCAGSPQKPLCASDGRTFLSRCEN was 3.93.
Same read-out and setting: the same measure for DCAGSPQKPLCASDGRTFLSRCEL: 3.44; for DCAGSPQKPLCASDGRTFLSRCEE: 4.41; for DCAGSPQKPLCASDGRTFLSRCER: 2.57.
Same read-out and setting: the value for DCAGSPQKPLCASDGRTFLSRCEA was 3.45; that for DCAGSPQKPLCASDGRTFLSRCED was 4.38.
Take DCAGSPQKPLCASDGRTFLSRCEV: the protein stability index turned out to be 3.32.
The same measure, in the same setting: the same measure for DCAGSPQKPLCASDGRTFLSRCET: 2.61.
The same measure, in the same setting: the value for DCAGSPQKPLCASDGRTFLSRCEQ was 3.6; that for DCAGSPQKPLCASDGRTFLSRCEY was 2.67; that for DCAGSPQKPLCASDGRTFLSRCEM was 2.72.
Same read-out and setting: the same measure for DCAGSPQKPLCASDGRTFLSRCEP: 2.43.
As to DCAGSPQKPLCASDGRTFLSRCRF, the protein stability index was determined as 2.43.
Same read-out and setting: the same measure for DCAGSPQKPLCASDGRTFLSRCHF: 2.46; for DCAGSPQKPLCASDGRTFLSRCGF: 1.5.
Same read-out and setting: the same measure for DCAGSPQKPLCASDGRTFLSRCTF: 2.19; for DCAGSPQKPLCASDGRTFLSRCAF: 2.59.
Still for that read-out and setting: the value for DCAGSPQKPLCASDGRTFLSRCWF was 1.82; that for DCAGSPQKPLCASDGRTFLSRCIF was 1.52.
In the case of DCAGSPQKPLCASDGRTFLSRCSF, the protein stability index came out at 2.74.
On the same count and under the same terms, the value for DCAGSPQKPLCASDGRTFLSRCNF was 3.31; that for DCAGSPQKPLCASDGRTFLSRCYF was 1.84; that for DCAGSPQKPLCASDGRTFLSRCMF was 2.1.
Still for that read-out and setting: the value for DCAGSPQKPLCASDGRTFLSRCPF was 2.95; that for DCAGSPQKPLCASDGRTFLSRCVF was 1.73.
Still for that read-out and setting: the same measure for DCAGSPQKPLCASDGRTFLSRCDF: 3.65; for DCAGSPQKPLCASDGRTFLSRCLF: 4.25; for DCAGSPQKPLCASDGRTFLSRCKF: 3.63.
As for DCAGSPQKPLCASDGRTFLSRCQF, the protein stability index amounted to 3.27.
Turning to DCAGSPQKPLCASDGRTFLSRCFF, the protein stability index was 2.38.
Same read-out and setting: the same measure for DCAGSPQKPLCASDGRTFLSRCCF: 2.53; for DCAGSPQKPLCASDGRTFLSMCEF: 1.68.
The same measure, in the same setting: the value for DCAGSPQKPLCASDGRTFLSTCEF was 1.9.
DCAGSPQKPLCASDGRTFLSLCEF: the protein stability index is 3.02.
Still for that read-out and setting: the value for DCAGSPQKPLCASDGRTFLSQCEF was 3.1.
Same read-out and setting: the same measure for DCAGSPQKPLCASDGRTFLSNCEF: 3.78; for DCAGSPQKPLCASDGRTFLSWCEF: 1.76.
On the same count and under the same terms, the value for DCAGSPQKPLCASDGRTFLSVCEF was 2.65.
Regarding DCAGSPQKPLCASDGRTFLSYCEF, the protein stability index stood at 2.27.
Take DCAGSPQKPLCASDGRTFLSPCEF: the protein stability index was determined as 3.91.
